Measured values published in article PMC9001736.

Key:
[1] = molecular target: ZZ domain of HERC2 (HERC2ZZ, aa 2702–2755 with additional tryptophan at the C-terminus) (human) (UniProt O95714); experiment: other fluorescence titration; tryptophan fluorescence; 1 μM HERC2ZZ with increasing REEE peptide; 25 °C; 20 mM Tris (pH 6.8), 150 mM NaCl, 2 mM DTT; excitation 295 nm
[2] = molecular target: ZZ domain of HERC2 (HERC2ZZ, aa 2702–2755 with additional tryptophan at the C-terminus) (human) (UniProt O95714); experiment: other fluorescence titration; tryptophan fluorescence; 1 μM HERC2ZZ with 1 μM HERC2DOC present, increasing REEE peptide; 25 °C; 20 mM Tris (pH 6.8), 150 mM NaCl, 2 mM DTT

Sequence of ZZ domain of HERC2 (HERC2ZZ, aa 2702–2755 with additional tryptophan at the C-terminus) (human) (O95714 other isoform, or with tags, fused parts or gaps): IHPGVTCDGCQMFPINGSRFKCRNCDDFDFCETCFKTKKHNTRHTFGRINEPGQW

Substance: REEE peptide (mimetic of the Nt-R cargo degradation signal)
- Kd [1]: 1200 nM
- Kd [2]: 1000 nM
